Results on 22 sequences are retold here after the DeepSol protein solubility set.

This data set can be described thus: soluble on expression in E. coli; label from the status in PepcDB or PDB records.
Turning to “MGSDKIHHHHHHMLGKGVVDYTREGSILSAEQRRFYEKNGYLLIRNCVPQYELNRFRQRFQDICEKKVKAPENMTVMKDISIAKSEFKDGEKAITKIQDFADDPVLFEYCKYPGVVDVVKDLIGNPKSNLMAMHTMLINKPPDNGKLTSRHPMHQDLQYFPFRPADFICCAWTAMEKITRANGCLVVVPGTHKGVLLPHEYPKWEGGVNKAYHGIQDYDTSTPRIHVEMEPGDTVFFHPILIHGSGANRTEGFRKAISCHYANDDLCRYVNVEGTTQETLAEEIIEIAKKRLTRYGLDPNTVTLDFADIWRVRAREVNGRRSNL”, the “soluble on expression in E. coli” value was “not soluble”.
On to “MANMKENEKVIMEKGIHTDFKENMTYGEYLQLDSLLSSQKRLSDHHDEMLFIVIHQASELWMKLILHELNAAIEFIKQDKLQPAFKMLARVSKIQSQIIQSWDILATLTPSEYIEFRDSLGQASGFQSYQYRMIEYALGYKTPHALKIYEKDPELHARLHKALHAPSLYDVAIQALVKEGFPIHKDVLNRDITQPYEEDATVEAAWLEVYADVKKYWNLYQLAEKLIDIEDWLQQWRFRHMKTVERIIGHKMGTGGSSGVSYLKRVLDQQFFPELWNVRTKLMAGDPNSLEHHHHHH”, for which the “soluble on expression in E. coli” value is given as “soluble”.
Regarding “SASRGYLHHLLTAEGAWEEFVSKAKLPRDRAVALHKALRDLTALLAIAERGRSRKGWKGKEKFVKAFPCLKADLEEHISQLYALADHAEELHRGCTVSNMVADSFSVASDILNLFGLFLAPESAEGSLVLSAAGLGLGVAATVTNVATSIMKETSRVLDGVEAGHHGSTAMDILEEAGTSVARIASEIPQATRDITRDLEALEQHMNALSLVRANPRLEEDARALINAGSIPAQRAKQVRASLKGTPLAMSKEDRIRSATTTGVTLLRDVGSLVNESKQLYEGSASESAAALRKLAQELEEKLGELMKFYETI”, the “soluble on expression in E. coli” value is recorded as “not soluble”.
Take “MKALCLLLLPVLGLLVSSKTLCSMEEAINERIQEVAGSLIFRAISSIGLECQSVTSRGDLATCPRGFAVTGCTCGSACGSWDVRAETTCHCQCAGMDWTGARCCRVQPLEHHHHHH”: the “soluble on expression in E. coli” value is “not soluble”.
Under “MAKVRIYQLAKELGMETQELLELLDQMGVAYKSHASTLEEKDAEAVRELVKEQRGLQEKLAEEERRKSLPRRPPVVVIMGHVDHGKTTLLDYLRKSRIAEKEAGGITQHVGAFEVKTPQGTVVFIDTPGHEAFTTIRQRGAKVADIAVIVIAADDGIMPQTEEAIAHAKAAGAKLIFAINKIDLPQADPEKVKRQLMERGFVPEEYGGDAIVIPISAKTGQGVQDLLEMILLLAELEDYRADPNAEPRGVILESKLDKQAGIIANMLVQEGTFRVGDYVVAGEAYGRIRAMMDADGNQRKEAGPGSAVQVLGFQELPHAGDVVEWVPDLEAAKEIAEERKEERKAREEEEKARRPRTMAELLRAMQEEGRKELNLILRADTQGSLEAIQHILARESTEDVKINILLAQVGAPTESDVLLAQTANAAILAFGVNPPGSVKKKAEEKGVLLKTFRIIYDLVDEVRNMVKGQREPQYKEEVLGQAEVRAIFRLPTGKQVAGCMVTQGRIPRNAEVRVLRDGQVIWQGRIASLKRFKEDVREVAQGYECGIGLDGFDDFREGDVIEAFQMVEVPA” stands “soluble”.
On to “MKINLDRTSSGFCIGVQGTIHVAEEKLAQSGELYCLGDVVHNEVEVKRLEALGMETIDIPAFEELRNAEVLIRAHGEPPSTYETARKNNLAITDTTCPVVAKLQRTAKMLHQLGYQVVIYGKKVHPEVIGINGQCDDEGVVIKHPDLSDPEEIAPLDLSRKTALISQTTMDVPGFYELKRNLEKLFAEHGHRNPGTQSGEWMAVRDIDITAEKTGALAMPKLVFKDTICRQVSSRNGKLRDFALANDCIVFAAGRKSSNGQVLYSICKDANPHSYFIEDVDEIRPEWFVGENGKPVESVGICGATSTPMWLLEKVANYIDKTFGDGSSNPNALEHHHHHH”, for which the “soluble on expression in E. coli” value is “not soluble”.
For the sequence “MGSDKIHHHHHHMTWTDLKSSLAAEGYVASDDLAVALQLALSLGRPLLLEGAAGVGKTEIARTLSAVRDTRLIRLQCYEGLDAAQAIYEWNYQRQLLTIRAASEAGETGKAVEDRIFSRDFLLERPLLAAITQEMAPVLLIDEIDRADEEFEAYLLEILSDFQVSIPELGTITAVTRPMVVLTSNGTRDLSDALRRRCLYTYVEYPDRTAELAILKARCPDVEARLAEQIIGFVQRLREEELEKTPGVAEMLDFAAALMGLGIADLTDNPAVLQSTLTTLLKTQSDQAQITREVAGRIAVKAA”, the “soluble on expression in E. coli” value is “not soluble”.
Consider “MFIKGVILSSYGVNGYARVKSISNNFCDFINLKNNKVLLKKSNSSSVEVKVVDVNIKGNSLFLKFEEIDTPEAVRPLIGFELWVDDSLASSLKEGEYYLGKLIGYAIVNNNKKLGEVVAFFEYLNSVFLEVRVGIKFFFIPFLSIYIGDINTQEKTIELKVLDLLKLEHHHHHH”, for which the “soluble on expression in E. coli” value is on record as “not soluble”.
“MSRVAPRDSAAQAASAVAESVRYQGRKASRQGSEQRRQAILDAAMRLIVRDGVRAVRHRAVAAEAQVPLSATTYYFKDIDDLITDTFALFVERNAEALSAFWSSVEGDLQEMAAVLADDPGARGSLVERIVELAVQYVQVQLTERREHLLAEQAFRQEALLNPRLRELADAHQRILSLGAVHFFQVLGSGQPEQDAKVLTSIILQMEYQGLVDGVEQLAVDEMRAILRRYLNLVMGL”: the “soluble on expression in E. coli” value is reported as “soluble”.
Turning to “GSHMLKEVWEELDGLDPNRFNPKTFFILHDINSDGVLDEQELEALFTKELEKVYDPKNEEDDMREMEEERLRMREHVMKNVDTNQDRLVTLEEFLASTQRKEF”, the “soluble on expression in E. coli” value is “soluble”.
For the sequence “MGHHKAMPYADVAAFIIELRKREAVAATALEFTILTAARSGETLGAKWHEIDWKDKIWTVPAERMKAAREHRVPLSSRTITILKKLAEFGSDENSFVFPGQKPGKPLSVMAMDMVLRRMEVDVTVHGFRSSFRDWCGEVSNFPRDVAEAALAHLEHHHHHH”, the “soluble on expression in E. coli” value is recorded as “soluble”.
In the case of “MAAAKIKKGDTVLVVRGKEKGKQGKVLKVYERVKRRDKQGNPVYVRHFVIVEGVRLIKKHVKPIEGVREGGIIETEGPIDISNVMLICPNCNKPTRVGFRIVEEGNVRRKYRYCKKCNENIDLVSEKVIKGG”, the “soluble on expression in E. coli” value was “soluble”.
Turning to “MKSYLNLKEEVWDKETCSGCGACVSVCPTENIYFKQQSPVQFDCDECACIIVPTENGESPISAEFCKVTLYDVNCGACYNACPRTKERHIFNLEKVPGRVIENYKAKSTLETKNIQSGGVVTAILANAFDEDLIDGAIVMMEDKWTMDPKSYLATSKEDVLKTAGSRYNWNVPILEVLKEAVMVKKLNKIAVVGTPCVINAVYQMMATNNDLVEPFKKAIRLKISLFCFETFDYDKMLKKLKEVEVNPWDIKKMEIDKGKLIVSTIHGNVFNFKIDEMDEYVRKGCKVCRDFTGISSDISVGNVGTPEGYSTVLVRNKWGKGFFDRAVINGYVSVEGEASIDPVISLSKKKMERKDIEFLEHHHHHH”, the “soluble on expression in E. coli” value is “not soluble”.
“MAVAMDNAILENILRQVRPLIGQGKVADYIPALATVDGSRLGIAICTVDGQLFQAGDAQERFSIQSISKVLSLVVAMRHYSEEEIWQRVGKDPSGSPFNSLVQLEMEQGIPRNPFINAGALVVCDMLQGRLSAPRQRMLEVVRGLSGVSDISYDTVVARSEFEHSARNAAIAWLMKSFGNFHHDVTTVLQNYFHYCALKMSCVELARTFVFLANQGKAIHIDEPVVTPMQARQINALMATSGMYQNAGEFAWRVGLPAKSGVGGGIVAIVPHEMAIAVWSPELDDAGNSLAGIAVLEQLTKQLGRSVY”: the “soluble on expression in E. coli” value is “soluble”.
Take “GSASDNAAYWSIATTMRSDNKALGAVSDALGMGAAKVDTASAGMDAAIKVVTDIKAKVVAAKEQGVDKTKVQEEVSQLLDQLKSIGTSASFNGENWLVSSANATKTVVSGFVRDAGGTVSVKTTDYALDANSMLYTEGTPGTIDANSGILNATGATTTVGAKTYTQISVLDMNVGTDDLDNALYSVETALTKMTSAGAKLGSLSARIDLQSGFADKLSDTIEKGVGRLV”: the “soluble on expression in E. coli” value was “not soluble”.
In the case of “MTEPKPRARRSGAAPARTRDDQVVDRRRSLLKAAVKVISKRGLTGVTINSIAAEAKCSYGVVAFHFQSKEGIIFAALDHTAAEYEAYLAQLNASQRGPAERIRHMIDTDFSRKAAGHESIALWLAFWAEAARVPSFRQRCAALRVQYNEAVAADVAELAALRGRTVEAEQVALTLNAMISGLWVENLLLPITIAEGQKRGHDASLAYLRLIFPDDF”, the “soluble on expression in E. coli” value is listed as “not soluble”.
Regarding “MGSDKIHHHHHHMRTLKVLHLASFDGNIGDNANHNGVRFLWKKYLPEYDFAITPLEMREYFWKWKSFDDGFADMVNEYDLFVCGGGNYFELWVQSSPTGTSVAIPLEVLRKIKTPCLFYALGLDPYMGAPDICIERFKRFLDYTLASPQFLVSVRNDGSLDSARRVLGGEYADRIHLMPDGGHFVQPEACTHYELTPGARTIGVNLAGDMLDFRFKSCNGKNLNDFKRSTAAVLCDIMRRMPDVNLIFYPHIHKDYSFLADFICGIDDHLLRRRITVAPYLHGQGAERKFFDLYRQCALNIGTRLHANICSVGLKTPSIGIVTHEQIHELYGYYGMAERALRFSDDNYAAKLDDLISDSLENTERISCRYSDVMSMVTKDAERFLGIMNCWLDSVV”, the “soluble on expression in E. coli” value is “not soluble”.
As to “MSLKHLKGNKNTFQKRMYCKKTEIDLSKSGTGLFPGAFYMNRHVKRVILPDYADTVPANLFKGCINLKEVTLPIDPNIGEAAFEGCISLTDIHIPLCIGSIATNAFRGCRENIRFYADSPAVNPKTLKQHIEKELGHSIELYNASGNLVESTEGHHHHHH”, the “soluble on expression in E. coli” value was “soluble”.
With “MTVWDRPEPPHRPVPLDRERIVAAAVALADEGGLTAVSVRKVAARLDAGPMRLYGFISTKDELFDLMVDAVYAEILPEERAGDWREALRVLAHRTRQAALRHPWLADLLGGRPALGPNGLAVAEATLAALDGLADVDTVMRAVETVSSYFTGAVRREIADLRAERATGLSKPEWQREHGPHLTRMLATGRYPALAKAVHDGTHVDAEESFATGLDWVLDAVAVRLARPPGS”, the “soluble on expression in E. coli” value is “not soluble”.
Under “MKKEPKGAKNRIVIAKDEKNVLTCTSEGFEYTPDIVKNVYGKSSRPALEDWFLTELDFFRRYYPGYEVFTLGSSCVFGEKFVNYLTICEFDIDSTYAFDCLKKALRESDQAIRRKLSAMWKWDIAARKDWSIVFMVGHMDFAYFLQHRKEFQEDAHKRFMSTFTTAETKITSRDYKVMHDGAILPFDETALSPEDRFIFENYQKIKFETTPL” stands “soluble”.
Regarding “MGSDKIHHHHHHMEQQIPFSYVIISPENATEKEGYMISTIDKCGFFFCQKGEVEVALNDKSYLISKGSVCIYMTGSLLRIQRISKDIKGIMLEVDLNYIIPIVNKIVNSENLLYLRENPCFSITEYQYNYLEQLIKALQQRMDIKAHDIPLQRQHLISELIKSWGQTLCYELLNVYFTNQPLKPLSQDKKDKIFQNFVITLFRYYQQERDVTFYASKQYLSSRYFSAVIKEKSGSTALQWIVQMVITEAKQLLENSDLTIKEIATKLNFPTQSFFGKYFKQYVGVSPKEYRNKQIRQLPF”, the “soluble on expression in E. coli” value is “not soluble”.
Take “MGSSHHHHHHSSGLVPRGSHMSRAYDLVVLGAGSGGLEAGWNAAVTHKKKVAVVDVQATHGPPLFAALGGTCVNVGCVPKKLMVTGAQYMDLIRESGGFGWEMDRESLCPNWKTLIAAKNKVVNSINESYKSMFADTEGLSFHMGFGALQDAHTVVVRKSEDPHSDVLETLDTEYILIATGSWPTRLGVPGDEFCITSNEAFYLEDAPKRMLCVGGGYIAVEFAGIFNGYKPCGGYVDLCYRGDLILRGFDTEVRKSLTKQLGANGIRVRTNLNPTKITKNEDGSNHVHFNDGTEEDYDQVMLAIGRVPRSQALQLDKAGVRTGKNGAVQVDAYSKTSVDNIYAIGDVTNRVMLTPVAINEGAAFVETVFGGKPRATDHTKVACAVFSIPPIGTCGMTEEEAAKNYETVAVYASSFTPLMHNISGSKHKEFMIRIITNESNGEVLGVHMLGDSAPEIIQSVGICMKMGAKISDFHSTIGVHPTSAEELCSMRTPAYFYESGKRVEKLSSNL”: the “soluble on expression in E. coli” value is reported as “soluble”.
